The target of the assay is CD19-CD22 CAR(CD19-CD22双靶点CAR-T细胞表面表达的CD19-CD22 scFv). Nature of the assay: flow cytometry on CD19-CD22 CAR-T cells, positive control tube. A general note: In flow cytometry, cells or beads pass a laser one at a time.

The substance “Alexa Fluor®647荧光标记的抗鼠F(ab')2抗体(Jackson ImmunoResearch Laboratories，货号#115-605-072) (antibody)” yielded a CAR阳性百分率 of 31.6%.

(Values after patent publication CN116640216A.)
